T1: mCry3A insecticidal protein (Bacillus thuringiensis subsp. …, UniProt P0A379 48-644, limits assumed)
T1 construct: also called modified Cry3A
T1 sequence: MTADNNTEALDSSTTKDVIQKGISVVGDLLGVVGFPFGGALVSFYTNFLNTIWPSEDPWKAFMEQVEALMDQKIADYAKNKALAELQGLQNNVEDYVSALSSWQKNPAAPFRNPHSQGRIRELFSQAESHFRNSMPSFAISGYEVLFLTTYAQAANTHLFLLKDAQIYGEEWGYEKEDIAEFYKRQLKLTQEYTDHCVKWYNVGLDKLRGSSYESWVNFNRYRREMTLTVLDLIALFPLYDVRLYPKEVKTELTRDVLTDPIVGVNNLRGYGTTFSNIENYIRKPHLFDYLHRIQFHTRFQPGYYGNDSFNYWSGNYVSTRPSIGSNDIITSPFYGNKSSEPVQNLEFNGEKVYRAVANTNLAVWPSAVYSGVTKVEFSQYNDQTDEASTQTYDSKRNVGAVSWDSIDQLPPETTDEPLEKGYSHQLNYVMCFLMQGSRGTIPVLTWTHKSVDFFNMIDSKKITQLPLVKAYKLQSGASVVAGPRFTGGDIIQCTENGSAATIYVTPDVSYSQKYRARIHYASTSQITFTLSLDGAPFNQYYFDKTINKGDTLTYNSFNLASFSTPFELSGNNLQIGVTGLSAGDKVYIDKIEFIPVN


Tests used:
[1] = target: T2, Cry1Ab insecticidal protein (Bacillus thuringiensis, UniProt P0A370 1-615); assay: direct ELISA: Cry1Ab coated at 1 ug/ml, RGS-His HRP detection
[2] = target: T2, Cry1Ab insecticidal protein; assay: direct ELISA, coated protein, SA-AP, 405 nm
[3] = target: T1, mCry3A insecticidal protein; assay: direct ELISA, coated protein, SA-AP, 405 nm
[4] = target: Cry1Ab.1Ca insecticidal protein; assay: direct ELISA, coated protein, SA-AP, 405 nm
[5] = target: eCry3.1Ab hybrid insecticidal protein; assay: direct ELISA, coated protein, SA-AP, 405 nm
[6] = target: Cry1Ai insecticidal protein; assay: direct ELISA, coated protein, SA-AP, 405 nm
[7] = target: Cry1Aa insecticidal protein (Bacillus thuringiensis subsp. aizawai, UniProt P0A367 12-1176); assay: direct ELISA, coated protein, SA-AP, 405 nm
[8] = target: T1, mCry3A insecticidal protein; assay: direct ELISA: mCry3A coated at 1 ug/ml, RGS-His HRP detection
[9] = target: eCry3.1Ab hybrid insecticidal protein; assay: direct ELISA: eCry3.1Ab coated at 1 ug/ml, RGS-His HRP detection

Binder	Binding (OD 450 nm) [1]	Binding (OD 450 nm) [9]	further results
synNAPS-2 ligand (designed binder) MVKVKFKYKGEEKEVDTSKIVWIGRFGKSVYFRYDDNGKTGAGRVYEKDAPKELLDMLARAEREKK	4 OD 450 nm	–	–
synNAPS-1tag ligand (designed binder, in vivo biotinylation (E. coli BirA strain) on the C-terminal avidin-tag, also called tagged synNAPS 1) MRGSHHHHHHGSVKVKFGPWGEEKEVDTSKIVDVWRWGKYVDFFYDDNGKVGIGSVTEKDAPKELLDMLARAEREKKLGSGLNDIFEAQKIEWH	–	–	binding result [2]: no binding (tested: 10 nM); binding result [3]: no binding (tested: 10 nM); binding result [4]: no binding (tested: 10 nM); binding result [5]: no binding (tested: 10 nM); binding result [6]: no binding (tested: 10 nM); binding result [7]: no binding (tested: 10 nM)
synNAPS-9 ligand (designed binder) MVKVKFAQGGEEKEVDTSKIYRVPRHGKIVFFMYDDNGKGGFGHVTEKDAPKELLDMLARAEREKK	–	–	Binding (OD 450 nm) [8]: 2.5 OD 450 nm
synNAPS-10tag ligand (designed binder, in vivo biotinylation (E. coli BirA strain) on the C-terminal avidin-tag, also called tagged synNAPS 10) MRGSHHHHHHGSVKVKFLMKGEEKEVDTSKIKWVNRHGKYVAFYYDDNGKTGGGEVREKDAPKELLDMLARAEREKKLGSGLNDIFEAQKIEWH	–	–	binding result [2]: no binding (tested: 10 nM); binding result [3]: no binding (tested: 10 nM); binding result [4]: no binding (tested: 10 nM); binding result [5]: no binding (tested: 10 nM); binding result [6]: no binding (tested: 10 nM); binding result [7]: no binding (tested: 10 nM)
synNAPS9 variant F31A (designed binder) RGSHHHHHHGSMVKVKFAQGGEEKEVDTSKIYRVPRHGKIVAFMYDDNGKGGFGHVTEKDAPKELLDMLARAEREKK	–	–	Binding (OD 450 nm) [8]: 1.4 OD 450 nm
synNAPS9 variant P24A (designed binder) RGSHHHHHHGSMVKVKFAQGGEEKEVDTSKIYRVARHGKIVFFMYDDNGKGGFGHVTEKDAPKELLDMLARAEREKK	–	–	Binding (OD 450 nm) [8]: 0.5 OD 450 nm
synNAPS9 variant Y21A (designed binder) RGSHHHHHHGSMVKVKFAQGGEEKEVDTSKIARVPRHGKIVFFMYDDNGKGGFGHVTEKDAPKELLDMLARAEREKK	–	–	Binding (OD 450 nm) [8]: 1.8 OD 450 nm
synNAPS9 variant G9A (designed binder) RGSHHHHHHGSMVKVKFAQAGEEKEVDTSKIYRVPRHGKIVFFMYDDNGKGGFGHVTEKDAPKELLDMLARAEREKK	–	–	Binding (OD 450 nm) [8]: 1.5 OD 450 nm
synNAPS9 variant R22A (designed binder) RGSHHHHHHGSMVKVKFAQGGEEKEVDTSKIYAVPRHGKIVFFMYDDNGKGGFGHVTEKDAPKELLDMLARAEREKK	–	–	Binding (OD 450 nm) [8]: 1 OD 450 nm
synNAPS9 variant G40A (designed binder) RGSHHHHHHGSMVKVKFAQGGEEKEVDTSKIYRVPRHGKIVFFMYDDNGKAGFGHVTEKDAPKELLDMLARAEREKK	–	–	Binding (OD 450 nm) [8]: 1.7 OD 450 nm
synNAPS9 variant F42A (designed binder) RGSHHHHHHGSMVKVKFAQGGEEKEVDTSKIYRVPRHGKIVFFMYDDNGKGGAGHVTEKDAPKELLDMLARAEREKK	–	–	Binding (OD 450 nm) [8]: 0.2 OD 450 nm
synNAPS9 variant H26A (designed binder) RGSHHHHHHGSMVKVKFAQGGEEKEVDTSKIYRVPRAGKIVFFMYDDNGKGGFGHVTEKDAPKELLDMLARAEREKK	–	–	Binding (OD 450 nm) [8]: 1.8 OD 450 nm
synNAPS13 variant K7A (designed binder) RGSHHHHHHGSMVKVKFARWGEEKEVDTSKILHVLRVGKYVRFSYDDNGKLGAGYVTEKDAPKELLDMLARAEREKK	–	3 OD 450 nm	–
synNAPS13 variant L21A (designed binder) RGSHHHHHHGSMVKVKFKRWGEEKEVDTSKIAHVLRVGKYVRFSYDDNGKLGAGYVTEKDAPKELLDMLARAEREKK	–	1.8 OD 450 nm	–
synNAPS13 variant S33A (designed binder) RGSHHHHHHGSMVKVKFKRWGEEKEVDTSKILHVLRVGKYVRFAYDDNGKLGAGYVTEKDAPKELLDMLARAEREKK	–	4.1 OD 450 nm	–
synNAPS13 variant L24A (designed binder) RGSHHHHHHGSMVKVKFKRWGEEKEVDTSKILHVARVGKYVRFSYDDNGKLGAGYVTEKDAPKELLDMLARAEREKK	–	1.1 OD 450 nm	–

Binder	Binding (OD 450 nm) [1]	Binding (OD 450 nm) [9]	further results
synNAPS13 variant L40A (designed binder) RGSHHHHHHGSMVKVKFKRWGEEKEVDTSKILHVLRVGKYVRFSYDDNGKAGAGYVTEKDAPKELLDMLARAEREKK	–	0.5 OD 450 nm	–
synNAPS13 variant R8A (designed binder) RGSHHHHHHGSMVKVKFKAWGEEKEVDTSKILHVLRVGKYVRFSYDDNGKLGAGYVTEKDAPKELLDMLARAEREKK	–	2.4 OD 450 nm	–
synNAPS13 variant T46A (designed binder) RGSHHHHHHGSMVKVKFKRWGEEKEVDTSKILHVLRVGKYVRFSYDDNGKLGAGYVAEKDAPKELLDMLARAEREKK	–	4.1 OD 450 nm	–
synNAPS13 variant V26A (designed binder) RGSHHHHHHGSMVKVKFKRWGEEKEVDTSKILHVLRAGKYVRFSYDDNGKLGAGYVTEKDAPKELLDMLARAEREKK	–	1.8 OD 450 nm	–
synNAPS13 variant W9A (designed binder) RGSHHHHHHGSMVKVKFKRAGEEKEVDTSKILHVLRVGKYVRFSYDDNGKLGAGYVTEKDAPKELLDMLARAEREKK	–	1 OD 450 nm	–
synNAPS13 variant Y29A (designed binder) RGSHHHHHHGSMVKVKFKRWGEEKEVDTSKILHVLRVGKAVRFSYDDNGKLGAGYVTEKDAPKELLDMLARAEREKK	–	2.6 OD 450 nm	–
synNAPS2 variant K7A (designed binder) RGSHHHHHHGSMVKVKFAYKGEEKEVDTSKIVWIGRFGKSVYFRYDDNGKTGAGRVYEKDAPKELLDMLARAEREKK	4 OD 450 nm	–	–
synNAPS2 variant V21A (designed binder) RGSHHHHHHGSMVKVKFKYKGEEKEVDTSKIAWIGRFGKSVYFRYDDNGKTGAGRVYEKDAPKELLDMLARAEREKK	3.8 OD 450 nm	–	–
synNAPS2 variant I23A (designed binder) RGSHHHHHHGSMVKVKFKYKGEEKEVDTSKIVWAGRFGKSVYFRYDDNGKTGAGRVYEKDAPKELLDMLARAEREKK	3.2 OD 450 nm	–	–
synNAPS2 variant K9A (designed binder) RGSHHHHHHGSMVKVKFKYAGEEKEVDTSKIVWIGRFGKSVYFRYDDNGKTGAGRVYEKDAPKELLDMLARAEREKK	4 OD 450 nm	–	–
synNAPS2 variant Y8A (designed binder) RGSHHHHHHGSMVKVKFKAKGEEKEVDTSKIVWIGRFGKSVYFRYDDNGKTGAGRVYEKDAPKELLDMLARAEREKK	2.4 OD 450 nm	–	–
synNAPS2 variant T40A (designed binder) RGSHHHHHHGSMVKVKFKYKGEEKEVDTSKIVWIGRFGKSVYFRYDDNGKAGAGRVYEKDAPKELLDMLARAEREKK	4 OD 450 nm	–	–
synNAPS2 variant Y46A (designed binder) RGSHHHHHHGSMVKVKFKYKGEEKEVDTSKIVWIGRFGKSVYFRYDDNGKTGAGRVAEKDAPKELLDMLARAEREKK	3.5 OD 450 nm	–	–
synNAPS2 variant R33A (designed binder) RGSHHHHHHGSMVKVKFKYKGEEKEVDTSKIVWIGRFGKSVYFAYDDNGKTGAGRVYEKDAPKELLDMLARAEREKK	2.2 OD 450 nm	–	–
synNAPS2 variant G24A (designed binder) RGSHHHHHHGSMVKVKFKYKGEEKEVDTSKIVWIARFGKSVYFRYDDNGKTGAGRVYEKDAPKELLDMLARAEREKK	4 OD 450 nm	–	–
synNAPS2 variant F26A (designed binder) RGSHHHHHHGSMVKVKFKYKGEEKEVDTSKIVWIGRAGKSVYFRYDDNGKTGAGRVYEKDAPKELLDMLARAEREKK	3.7 OD 450 nm	–	–
